By Kd is commonly meant the constant that tells how readily two partners part at equilibrium. Lower therefore signals tighter binding.

The text below walks through data of paper doi:10.1101/2025.08.01.667725 (bioRxiv, 2025).

The target of this assay is T1, FLAG-tagged full-length PU.1, purified (human, UniProt P17947 1-270).
T1 construct: PU.1 transcription factor, full length; also called FLAG-PU.1; purified PU.1; source: 293-ExpiF (Expi293TF) cells, transfected with pCAG, purified (FLAG M2 beads, anion exchange, size exclusion)
Briefly: MST; SMARCD2 SWIFT domain and PU.1; Kd model fit. The conditions noted are these: both partners purified.

B1: SMARCD2 SWIFT domain, purified from E. coli (domain or fragment, human)
chain: LTQKRKLRIYISNTFSPSKAEGDSAGTAGTPGGTPAGDKVASWELRVEGKLLDDPSKQKRKFSSFFKSLVIELDKELYGPDNHLVEWHRMPTTQETDGFQVKRPGDLNVKCTLLLMLDHQPPQYQHPDPIVINHVISVDPNDQKKTACYDIDVEVD
notes: SMARCD2, human, stretch of the SWIFT domain before the SWIB domain; the text gives aa185–312; also called SMARCD2 YEATS-like SWIFT domain; source: E. coli (pGOOD), purified
B1 returned a dissociation constant Kd of 3.6 µM.
